What was measured:
[1] = biological target: Methanoculleus sp. schizorhodopsin (Methanoculleus sp. (metagenome-assembled genome)); experiment: cryo-EM structure
[2] = biological target: Methanoculleus taiwanensis schizorhodopsin (Methanoculleus taiwanensis); experiment: cryo-EM structure

Row | stoichiometry N [1] | stoichiometry N [2] | Substance
1 | 3 | – | Methanoculleus sp. schizorhodopsin (natural protein)
2 | – | 3 | Methanoculleus taiwanensis schizorhodopsin (natural protein)

Source: publication doi:10.1101/2025.10.20.683367
